# Assay results taken from patent US7479478B2, “Human parathyroid hormone modifications, preparation and use” (The General Hospital Corporation, priority 1998, dated 2009).
# “Also recorded” adds a separate entry of the source. No end group written: not given here.
# Key:
# [1] = biological target: T1, human PTH-1 receptors (Homo sapiens, UniProt Q03431); experiment: PLC activation (IP3 formation) in HKRK B7 cells; assay type: cell-based; details: for EC50: read-out: EC50 for PLC activation (IP3 formation); for IP3 Formation (% Maximum): % of maximal response to hPTH-(1-34); for PLC activation (IP3 formation), result in words: up to 1000 nM or 10 μM; for PLC activation, percent of basal: 1000 nM peptide
# T1 construct: expressed in transfected cells
# T1 sequence (Q03431 27-593): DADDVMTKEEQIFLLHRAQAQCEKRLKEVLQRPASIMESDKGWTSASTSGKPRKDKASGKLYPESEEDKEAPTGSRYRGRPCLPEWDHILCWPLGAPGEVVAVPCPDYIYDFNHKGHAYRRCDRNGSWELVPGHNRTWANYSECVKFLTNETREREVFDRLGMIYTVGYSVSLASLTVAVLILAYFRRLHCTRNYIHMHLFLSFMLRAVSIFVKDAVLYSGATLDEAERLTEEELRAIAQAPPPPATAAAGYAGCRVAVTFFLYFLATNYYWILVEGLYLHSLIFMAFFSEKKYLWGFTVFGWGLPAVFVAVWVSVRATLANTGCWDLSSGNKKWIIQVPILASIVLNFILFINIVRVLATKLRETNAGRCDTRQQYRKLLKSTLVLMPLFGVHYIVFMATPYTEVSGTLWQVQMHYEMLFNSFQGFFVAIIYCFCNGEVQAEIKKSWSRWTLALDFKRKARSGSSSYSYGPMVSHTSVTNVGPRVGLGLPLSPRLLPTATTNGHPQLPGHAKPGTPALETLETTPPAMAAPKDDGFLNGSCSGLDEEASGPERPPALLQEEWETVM
# Method: (§1) HKRK B7 or EW5 cells (32), subclones of LLC-PKI renal epithelial cells that stably express human or rat PTH-1 receptors (950,000 and 320,000 receptors/cell, respectively), were maintained under 5% CO2 in air in Dulbecco's modified essential medium containing 7% fetal bovine serum (FBS) and 1% penicillin/streptomycin (GIBCO-BRL, Grand Island, N.Y.). HEK-293 and COS-7 cells were cultured similarly, except that 10% FBS was used in the medium. Cells were seeded into 24-well plates two days before assay at a density of 2-2.5×10^5 cells/well (HKRK B7 or EW 5 cells) or 6×10^5 cells/well (in 6-well plates) (HEK-293 cells). In experiments involving HEK-293 cells, DNA transfections were performed 24 hr after plating and inositol radiolabel was added 24 hr thereafter (see below). COS-7 cell transfections were performed as previously described (Gardella, T. J., et al., Endocrinology 132(5):2024-2030 (1993))
# PLC was activated by PTH agonists in the presence of 30 mM LiCl at 37° C. for 30 min after 16 hr of labeling with [^3H]myo-inositol (3 uCi/ml) in serum-free medium containing 0.1% bovine serum albumin. The reactions were stopped by rapid aspiration and addition of cold 5% TCA. Water-soluble radiolabeled inositol trisphosphate (IP3) was isolated after ether extraction by ion-exchange chromatography (Guo, J., et al., Endocrinology 136(9):3884-3891 (1995)). In experiments involving HEK 293 cells, cells previously transfected with human PTHR cDNA (in the pcDNA1 expression vector HKRK) using Lipofectamine (Gibco BRL) were labeled with [^3H]myo-inositol and assayed as described above, except that total water-soluble [^3H]inositol polyphosphates were collected as a single fraction from the ion-exchange columns.
# [2] = biological target: T1, human PTH-1 receptors; experiment: Intracellular cAMP accumulation (adenylyl cyclase, AC, activation) in HKRK B7 cells; assay type: cell-based; details: for Cyclic AMP accumulation (% Maximum): % of maximal response to hPTH-(1-34), HKRK B7; for AC activation (cAMP accumulation), result in words: HKRK B7 cells, compared with hPTH-(1-34) or parent peptide
# Method: as §1, with “(1993)) Intracellular cAMP accumulation, PLC activation and PTHR binding affinity were measured as previously reported (Bringhurst, F. R., et al., Endocrinology 132(5):2090-2098 (1993); Guo, J., et al., Endocrinology 136(9):3884-3891 (1995)). Intracellular cAMP accumulation was measured in extracts of cells that were exposed to human PTH peptides in the presence of isobutylmethyxanthine (IBMX, 1 mM) at 37° C. for 15 min. After terminating the reactions by aspiration and freezing in liquid nitrogen, cell monolayers were extracted with 50 mM HCl and cAMP was measured using a radioimmunoassay kit (Dupont-New England Nuclear, Boston, Mass.).” for “(1993))”
# [3] = biological target: T1, human PTH-1 receptors; experiment: Radioligand competition binding with 125I-[Nle8,21,Tyr34]rat PTH-(1-34) in HKRK B7 cells
# Method: as §1, with “(1993)) Radioligand competition binding assays were performed at 2-8° C. for 6 hr using ^125I-[Nle^8,21,[…]]rat PTH-(1-34) (100,000 cpm/well) in the presence or absence of non-radioactive hPTH-(1-34) analogs. Cell layers were washed three times before solubilization for determination of cell-associated radioactivity.” for “(1993))”
# [4] = test system: membrane-bound PKCs; details: osteoblast-like ROS 17/2 cells; Neugebauer et al. 1995; cited from earlier work
# [5] = biological target: T1, human PTH-1 receptors; details: HKRK B7 cells; Takasu and Bringhurst 1998; cited from earlier work
# [6] = biological target: T1, human PTH-1 receptors; details: HKRK B7 cells; Takasu and Bringhurst 1998; cited from earlier work; remark: listed apart in the source
substance,measurement,setting,value
AVSEIQLMHNLGKHLNSMERVEWLRKKL-NH2 [[Ala^1]hPTH-(1-28)],EC50,[1]; HKRK B7 cells,1000 nM
"AVSEIQLMHNLGKHLNSMRRVEWLRKK [[Ala^1,Arg^19]hPTH-(1-27)]",Cyclic AMP accumulation (% Maximum),[2]; 0.01 nM,−0.2 ± 0.1 % Maximum
same,Cyclic AMP accumulation (% Maximum),[2]; 0.1 nM,0.6 ± 0.3 % Maximum
same,Cyclic AMP accumulation (% Maximum),[2]; 1 nM,7 ± 0.6 % Maximum
same,Cyclic AMP accumulation (% Maximum),[2]; 10 nM,50 ± 5.1 % Maximum
same,Cyclic AMP accumulation (% Maximum),[2]; 100 nM,92 ± 15 % Maximum
same,Cyclic AMP accumulation (% Maximum),[2]; 1000 nM,99 ± 8.8 % Maximum
same,IP3 Formation (% Maximum),"[1]; 1000 nM, HKRK B7",1.5 ± 4.8 % Maximum
same,IP3 Formation (% Maximum),"[1]; 10000 nM, HKRK B7",6.9 ± 10 % Maximum
"AVSEIQLMHNLGKHLNSMRRVEWLRKKL-NH2 [[Ala^1,Arg^19]hPTH-(1-28)]","AC activation (cAMP accumulation), result in words",[2],indistinguishable from that of hPTH-(1-34)
same,EC50,[1]; HKRK B7 cells,200 nM
same,fold improvement of EC50 for PLC activation by the Arg^19 modification,"[1]; over [Ala^1]hPTH-(1-28), HKRK B7",5 fold
GlyValSerGluIleGInLeuMetHisAsnLeuGlyLysHisLeuAsnSerMetGluArgVal GluTrpLeuArgLysLysLeu (GVSEIQLMHNLGKHLNSMERVEWLRKKL; listed as Homo sapiens) [[Gly^1]hPTH-(1-28)],"binding affinity, result in words",[3],modestly impaired
same,"PLC activation (IP3 formation), result in words",[1]; HKRK B7 cells,"selectively eliminated PLC signaling, apart from a weak response at 10 μM"
SVSEIQLMHNLGKHLNSMRRVEWLRKKL-NH2 [[Arg^19]hPTH-(1-28)],"AC activation (cAMP accumulation), result in words",[2],unaffected
same,IC50,[3]; read-out: apparent IC50 for binding,100 nM
same,EC50,[1]; HKRK B7 cells,300 nM
same,"PLC activation (IP3 formation), result in words",[1]; HKRK B7 cells,maximally activated
SerValSerGluIleGlnLeuMetHisAsnLeuGlyLysHis LeuAsnSerMetGluArgValGluTrpLeuArgLysLys (SVSEIQLMHNLGKHLNSMERVEWLRKK-NH2; listed as Homo sapiens) [hPTH-(1-27)],stimulation of activity of membrane-bound PKCs,[4],incapable of stimulating
[Ala^1]hPTH-(1-34): hPTH-(1-34) with Ala^1 for Ser^1 [reference compound],"AC activation (cAMP accumulation), result in words",[2],indistinguishable from hPTH-(1-34)
same,"binding affinity, result in words",[3],indistinguishable from hPTH-(1-34)
same,"PLC activation (IP3 formation), result in words",[1]; HKRK B7 cells,indistinguishable from hPTH-(1-34)
[Gly^1]hPTH-(1-34): hPTH-(1-34) with Gly^1 for Ser^1 [reference compound],"AC activation (cAMP accumulation), result in words",[2],unchanged
same,"binding affinity, result in words",[3],unchanged
same,PLC activity as % of the hPTH-(1-34) maximum,"[1]; 1000 nM, highest concentration tested, HKRK B7 cells",25%
[Tyr^0]hPTH-(1-34): hPTH-(1-34) with a tyrosine residue interposed at the N-terminus; purchased from Sigma (YSVSEIQLMHNLGKHLNSMERVEWLRKKLQDVHNF) [reference compound],"PLC activation, percent of basal",[1]; HKRK B7 cells,105±5% of basal
desamino-hPTHrP(1-36): hPTHrP(1-36) with the α-amino group removed [reference compound],"PLC activation, percent of basal",[1]; HKRK B7 cells,101±6% of basal
hPTH-(1-24): C-truncated human PTH peptide (SVSEIQLMHNLGKHLNSMERVEWL),"AC activation (cAMP accumulation), result in words",[2],only minimally active
hPTH-(1-25): C-truncated human PTH peptide (SVSEIQLMHNLGKHLNSMERVEWLR),"AC activation (cAMP accumulation), result in words",[2],nearly identical
hPTH-(1-26): C-truncated human PTH peptide (SVSEIQLMHNLGKHLNSMERVEWLRK),stimulation of activity of membrane-bound PKCs,[4],incapable of stimulating
"hPTH-(1-30): C-truncated human PTH peptide (SVSEIQLMHNLGKHLNSMERVEWLRKKLQD-NH2; UniProt P01270 32-61, looked up, fragment)",stimulation of activity of membrane-bound PKCs,[4],incapable of stimulating
same,"PLC activation, previously reported",[5],fully activated
same,"AC activation, previously reported",[6],fully activated
hPTH-(1-31): C-truncated human PTH peptide,"PLC activation, previously reported",[5],fully activated
same,"AC activation, previously reported",[6],fully activated
hPTH-(2-34): hPTH-(1-34) lacking residue 1 (VSEIQLMHNLGKHLNSMERVEWLRKKLQDVHNY) [reference compound],"AC activation (cAMP accumulation), result in words",[2],comparable in magnitude and sensitivity to that of hPTH-(1-34); also recorded: equipotent with hPTH-(1-34)
same,"PLC activation (IP3 formation), result in words",[1]; HKRK B7 cells,did not elicit PLC activity
hPTHrP(1-36): human PTH-related peptide fragment 1-36 [reference compound],"PLC activation, percent of basal",[1]; HKRK B7 cells,178±12% of basal
